One may read the Km as the substrate concentration at which the rate is half of its maximum. What is called Vmax is the top rate of the reaction or transport when substrate is in excess. For orientation: kcat means the number of substrate molecules converted per active site and unit of time at saturation. The kcat/Km is the second-order rate constant that governs catalysis at low substrate concentration.

This note sets out measurements from article PMC10465243, “Identification of sucrose synthase from Micractinium conductrix to favor biocatalytic glycosylation” (Frontiers in Microbiology, 2023).

Data set [1] has as its system O=c1ccn([C@@H]2O[C@H](COP(=O)(O)OP(=O)(O)O)[C@@H](O)[C@H]2O)c(=O)[nH]1. The experiment in a line: purified protein. It is filed as biochemical, Micractinium conductrix. The conditions noted are these: 200 mM sucrose, 50 mM HEPES-NaOH pH 7.0, 37°C, sucrose cleavage direction, apparent.
Data set [2] relates to OC[C@H]1O[C@@](CO)(O[C@H]2O[C@H](CO)[C@@H](O)[C@H](O)[C@H]2O)[C@@H](O)[C@@H]1O. The experiment in a line: purified protein. It is filed as biochemical, Micractinium conductrix. The note with it: 2 mM UDP, 50 mM HEPES-NaOH pH 7.0, 37°C, sucrose cleavage direction, apparent.

Sequence of McSuSy (Micractinium conductrix) (chain, as listed by the source): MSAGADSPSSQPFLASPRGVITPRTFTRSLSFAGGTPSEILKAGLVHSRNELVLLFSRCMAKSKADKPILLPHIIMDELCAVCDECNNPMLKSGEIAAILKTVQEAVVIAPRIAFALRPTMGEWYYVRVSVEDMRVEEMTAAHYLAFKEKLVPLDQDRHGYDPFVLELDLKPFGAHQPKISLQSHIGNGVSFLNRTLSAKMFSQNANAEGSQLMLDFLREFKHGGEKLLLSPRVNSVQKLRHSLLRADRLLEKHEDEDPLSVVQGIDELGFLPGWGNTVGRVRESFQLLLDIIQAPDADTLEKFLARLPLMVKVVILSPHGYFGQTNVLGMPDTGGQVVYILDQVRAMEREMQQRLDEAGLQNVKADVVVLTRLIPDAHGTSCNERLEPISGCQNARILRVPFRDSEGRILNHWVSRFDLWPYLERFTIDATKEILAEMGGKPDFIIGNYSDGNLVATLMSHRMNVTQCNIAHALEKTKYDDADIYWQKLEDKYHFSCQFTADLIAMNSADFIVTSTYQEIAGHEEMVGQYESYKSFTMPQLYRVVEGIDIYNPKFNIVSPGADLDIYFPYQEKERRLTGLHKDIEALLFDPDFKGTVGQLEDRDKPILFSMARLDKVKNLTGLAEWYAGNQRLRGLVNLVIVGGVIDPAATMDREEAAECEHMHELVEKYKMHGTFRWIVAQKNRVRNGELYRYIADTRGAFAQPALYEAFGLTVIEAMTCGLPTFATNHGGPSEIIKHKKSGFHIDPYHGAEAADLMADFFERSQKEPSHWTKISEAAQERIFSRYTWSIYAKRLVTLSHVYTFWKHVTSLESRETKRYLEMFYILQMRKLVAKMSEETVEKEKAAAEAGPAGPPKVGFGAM
Sequence of McSuSy (Micractinium conductrix; S31D) (chain, as listed by the source S31D): as the sequence (chain, as listed by the source) above, with S31D counted along it

For McSuSy (Micractinium conductrix; S31D), in data set [1], the Km was determined as 0.092 mM, the Vmax was determined as 11.4 µmol/min/mg, the turnover number (kcat) came out at 19 s⁻¹ and the catalytic efficiency (kcat/Km) worked out at 206000 M⁻¹ s⁻¹. The Michaelis constant (Km) in data set [2] was found to be 88 mM.
McSuSy (Micractinium conductrix): in data set [1], the Michaelis constant (Km) turned out to be 0.14 mM, the maximal velocity (Vmax) came to 10.4 µmol/min/mg, the kcat came out at 17.3 s⁻¹ and the specificity constant (kcat/Km) came to 124000 M⁻¹ s⁻¹. In data set [2], the Km amounted to 90 mM.
